# From patent publication US20140301945A1 (NEURIMMUNE, published 2014)
# Key:
# [1] = target: T1, recombinant human SOD1 (biomol, Hamburg) (human, UniProt P00441 2-154, limits assumed); assay: direct ELISA, recombinant human SOD1 coated at 30 µg/ml
# T1 construct: Bought protein; also called recombinant human superoxide dismutase 1; Recombinant SOD1
# Experimental: (§1) Binding was determined using either a goat anti-mouse IgG antibody (Jackson immunoResearch, Newmarket, UK) or a donkey anti-human IgGγ (Jackson immunoResearch, Newmarket, UK) antibody conjugated with HRP, followed by measurement of HRP activity in a standard colorimetric assay. The EC₅₀ values were estimated by a non-linear regression using GraphPad Prism (San Diego, USA) software.
# [2] = target: T1, recombinant human SOD1 (biomol, Hamburg); assay: direct ELISA, recombinant SOD1 coated at 20 µg/ml
# Experimental: (§2) Primary antibodies were diluted to the indicated concentrations and incubated 1 h at RT. Binding was determined using either a donkey anti-human IgG Fcγ-specific antibody conjugated with HRP or a goat anti-mouse IgG (H+L)-specific antibody conjugated with HRP, followed by measurement of HRP activity in a standard colorimetric assay.
# (§3) The EC₅₀ of the different human-derived SOD1-specific antibodies for native human SOD1 dimers, denatured/oxidized human SOD1 and recombinant SOD1 was determined by direct ELISA with coating of the different SOD1 species at 20 μg/ml concentration.
# [3] = target: wild type SOD1 from human erythrocytes (physiological dimers) (human) (UniProt P00441); assay: direct ELISA, native human SOD1 dimers coated at 20 µg/ml; Native SOD1 (not denatured, oxidized or recombinant)
# wild type SOD1 from human erythrocytes (physiological dimers) (human), sequence (P00441 2-154 limits assumed): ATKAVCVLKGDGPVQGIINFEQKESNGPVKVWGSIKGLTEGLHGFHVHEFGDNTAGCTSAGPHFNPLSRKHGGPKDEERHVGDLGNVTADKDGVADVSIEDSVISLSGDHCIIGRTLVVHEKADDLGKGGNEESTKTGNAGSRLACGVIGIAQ
# [4] = target: T1, recombinant human SOD1 (biomol, Hamburg); assay: direct ELISA, recombinant human SOD1 coated at 10 µg/ml
# Experimental: as §1
# bovine serum albumin = target: T2, bovine serum albumin (bovine, UniProt P02769 25-607); assay: direct ELISA, BSA coated at 3.3 µg/ml
# T2 construct: Control antigen in ELISA; also called BSA
# T2 sequence (P02769 25-607 limits assumed): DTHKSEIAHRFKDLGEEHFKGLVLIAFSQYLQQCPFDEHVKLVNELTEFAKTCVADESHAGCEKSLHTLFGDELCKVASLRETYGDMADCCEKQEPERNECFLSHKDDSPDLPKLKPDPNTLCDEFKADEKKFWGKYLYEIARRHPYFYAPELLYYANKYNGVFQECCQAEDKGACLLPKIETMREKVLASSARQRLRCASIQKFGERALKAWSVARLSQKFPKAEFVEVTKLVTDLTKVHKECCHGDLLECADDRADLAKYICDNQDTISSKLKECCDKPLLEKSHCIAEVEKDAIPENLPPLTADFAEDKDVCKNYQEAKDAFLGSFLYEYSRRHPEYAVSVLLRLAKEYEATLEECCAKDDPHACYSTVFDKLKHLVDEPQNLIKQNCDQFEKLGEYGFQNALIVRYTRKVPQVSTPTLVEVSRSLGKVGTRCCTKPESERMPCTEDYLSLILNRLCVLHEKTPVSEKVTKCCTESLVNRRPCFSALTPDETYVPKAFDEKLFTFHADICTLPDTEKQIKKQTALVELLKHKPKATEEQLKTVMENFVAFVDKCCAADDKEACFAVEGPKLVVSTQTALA
# Text: Non-specific binding sites were blocked for 2 hr at RT with PBS containing 2% BSA (Sigma-Aldrich, Buchs, Switzerland) and 0.5% Tween20.
# [5] = target: T3, in vitro misfolded/aggregated human SOD1 (metal-catalyzed oxidation) (human, UniProt P00441 2-154, oxidized by metal-catalyzed oxidation (4 mM ascorbic acid, 0.2 mM CuCl2, 48 hours at 37 C); residues not stated); assay: direct ELISA, oxidized human SOD1 coated at 20 µg/ml
# T3 construct: also called Oxidized SOD1; in vitro aggregated human SOD1 dimers
# T3 sequence (P00441 2-154 limits assumed): as the sequence (P00441 2-154 limits assumed) above
# [6] = target: T3, in vitro misfolded/aggregated human …; assay: direct ELISA, in vitro aggregated human SOD1 coated at 34 µg/ml
# Experimental: (§4) Non-specific binding sites were blocked for 1 hr at RT with PBS/0.1% Tween®-20 containing 2% BSA (Sigma-Aldrich, Buchs, Switzerland). […] Binding was determined using either a goat anti-mouse IgG antibody (Jackson immunoResearch, Newmarket, UK) or a donkey anti-human IgGγ antibody (Jackson immunoResearch, Newmarket, UK) conjugated with HRP, followed by measurement of HRP activity in a standard colorimetric assay. EC₅₀ values were estimated by a non-linear regression using GraphPad Prism software (San Diego, USA).
# [7] = target: T1, recombinant human SOD1 (biomol, Hamburg); assay: direct ELISA, recombinant human SOD1 coated at 3.3 µg/ml
# Experimental: Binding was determined using a donkey anti-human IgGγ antibody (Jackson immunoResearch, Newmarket, UK) conjugated with HRP, followed by measurement of HRP activity in a standard colorimetric assay.
# The EC₅₀ values were estimated by a non-linear regression using GraphPad Prism (San Diego, USA) software.
# [8] = target: T1, recombinant human SOD1 (biomol, Hamburg); assay: direct ELISA, recombinant human SOD1 coated at 1 µg/ml
# Experimental: as §1
# [9] = target: T4, in vitro denatured human SOD1 (human, UniProt P00441 2-154); assay: direct ELISA, denatured human SOD1 coated at 20 µg/ml
# T4 construct: also called Denatured SOD1; unfolded SOD1
# T4 sequence (P00441 2-154 limits assumed): as above
# Experimental: as §2, §3
# [10] = target: T1, recombinant human SOD1 (biomol, Hamburg); assay: direct ELISA, recombinant human SOD1 coated at 0.1 µg/ml
# Experimental: as §1
# [11] = target: T5, wild type SOD1 from human erythrocytes (physiological dimers) (human, UniProt P00441 2-154); assay: direct ELISA, native human SOD1 dimers coated at 20 µg/ml
# T5 construct: Purified from human erythrocytes (Sigma-Aldrich); homodimer; control incubated in Tris acetate buffer without oxidants; also called Native SOD1; native human SOD1 dimers
# T5 sequence (P00441 2-154 limits assumed): as above
# Experimental: as §2, §3
# [12] = target: T5, wild type SOD1 from human erythrocytes …; assay: direct ELISA, physiological human SOD1 dimers coated at 34 µg/ml
# Experimental: as §4
# [13] = target: T1, recombinant human SOD1 (biomol, Hamburg); assay: direct ELISA, recombinant human SOD1 coated at 0.1 µg/ml; remark: listed apart in the source
# [14] = target: T1, recombinant human SOD1 (biomol, Hamburg); assay: direct ELISA, recombinant human SOD1 coated at 10 µg/ml; remark: listed apart in the source
# [15] = target: T1, recombinant human SOD1 (biomol, Hamburg); assay: direct ELISA, recombinant human SOD1 coated at 1 µg/ml; remark: listed apart in the source
# Experimental: as §1
# T1 sequence (P00441 2-154 limits assumed): as above
Binder,EC50 [1],EC50 [2],EC50 [3],EC50 [4],binding result (bovine serum albumin),EC50 [5],EC50 [6],EC50 [7],EC50 [8],EC50 [9],EC50 [10],EC50 [11],EC50 [12],EC50 [13],EC50 [14],EC50 [15]
"NI-204.10D12 (antibody, V domains shown) VH: EVQLVESGGDLVRPGGSLRLSCVASGFTFSNYWMHWVRQAPGQRPVWVSRTNTDGRNTAYADYAKGRFTISRDNAKSTLYLQLNSLRAEDTAVYFCARLRRNVADQITHNYYMDVWGKGTLVTVSS VL: EIVLTQSPGSLAVSLGERATINCKSSQTVLYNNKNYLAWYQQKPGQPPKLLISWASSRESGVPDRFSGSGSGTDFTLTISSLQAEDVAVYYCQHYYGTPVTFGGGTKVEIK",35 nM,7 nM,> 100 nM,24 nM,no binding,6 nM,15 nM,10 nM,81.4 nM,5 nM,606 nM,,,,,
"NI-204.34A3 (antibody, human IgG1, V domains shown) VH: EVQLVESGGGLVKPGGSLRVSCDVSGQRLSKAWMNWVRQTPTRGLEWVGLIKRDADGGTTEFAAPVEGRFTISRDDIQNTMTLHMTRLRVDDTGVYYCVAGDIGCIKENCRWGEGTTVTVSS VL: SYELTQPPSVSVSPGQTARITCSGDALPTKFAFWYQQKSGQAPVLVIYEDDKRPSGIPQRFSGSSSGTTATLTISGAQEEDDADYYCYSKDSTNVERVFGTGTKLSVL",,2 nM,,,,12 nM,,,,10 nM,,> 100 nM,,,,
"NI-204.7B3 (antibody, human IgG1, V domains shown) VH: EVQLVQSGGDIVQSGGSLRLSCAASGFVFSSNWMHWVRQRPGKGLEWISLINVDGRTTKYADSVKGRFTISRDNAKKTVYLQMDSLRAEDTAVYYCVKVEGLNWGPGTLVTVSS VL: LPVLTQPPSVSVSPGQTARITCSGDELSKQYAYWYQKKSGQAPVMVVNEDTKRPPGIPERFSGSSSGTTSTLTISGVQAEDEADYYCQSADITGSWVFGGGTKLTVL",,42 nM,,,,> 100 nM,,,,50 nM,,> 100 nM,,,,
"NI-204.9F6 (antibody, human IgG1, V domains shown, also called NI-209.9F6) VH: EVQLVESGGGLVQPGGSLRLSCAVSGFTFDTFAMSWVRQAPGKGLEWVSAITASSSKTYYADSVKGRFTISRDNSRNTVYLRLSSLRADDTAVYFCARPKGAHSGLYIESAFDLWGPGTMVTVSS VL: SYVLTQPPSVSVSAGQTASITCSADMLGDTYVSWYQKRPGQSPVLLIYQDSKRPSEIPERFSGSSSEDTATLTITGTQALDEAAYYCQVWDRRTTTYVFGPGTEVTVL",117 nM,> 100 nM,,148 nM,no binding,> 100 nM,127 nM,105 nM,134 nM,,451 nM,> 100 nM,,,,
"NI-204.6H1 (antibody, human IgG1, V domains shown) VH: QVQLQQWGAGRLRPSETLSLTCAVYGGSFNGYARTWIRQPPGKGLEWIGEIDHRENTNYNPSLKSRVTMSVDTSKNQFSLRLNSVTAADTAVYFCARGQKNAKDQHEGFRYWGRGTLVTVSS VL: SYELTQPPSVSVSPGQTARITCSGDALPKQFAYWYQQKSGQAPKLVIFKDTERPSGIPERFSASSSGTKATLTISGVQAEDEADYYCQSADRTATSWVFGGGTKLTVL",,2 nM,,,,4 nM,,,,5 nM,,> 100 nM,,,,
"NI-204.7G5 (antibody, human IgG1, V domains shown) VH: EVQLVESGGGVVQAGGSLRLSCVASGLTFSSYGMHWVRQAPGKGLEWVAVISYDGRSKFYADSVKGRFTISRDNSKNTLYLQMNSLRAEDAAVYYCANARVRDACSGTRCDKFGFYMDVWGKGTTVTVSS VL: SYVLTQPPSVSVSPGQTARITCSGDALPKKYAYWYQQKSGQAPVLVIYEDIKRPSGIPERFSGSSSGTMATLTISGAQVEDEGDYYCYSADRSGNRWAFGGGTKLTVL",,13 nM,,,,5 nM,,,,60 nM,,> 100 nM,,,,
"NI-204.25H3 (antibody, human IgG1, V domains shown) VH: QVQLQESGPGLVKPSETLSLTCTVSGGSISSSYWSWIRQPPGQGLEWIGYIYYSGNTYYNPSLKSRVTISIDTSKTQFSLNLTSVSAADTAVYYCARDGIPGAIGMDVWGQGTTVTVSS VL: QSVLTQPPSVSAAPGQKVNISCSGSSSNIGNNYVSWYQRLPGTAPKLLIYDNNKRPSGIPDRFSGSKSGTSATLGITGLQTGDGADYYCATWDKSLIAVVFGGGTKLTVL",,1 nM,,,,2 nM,,,,4 nM,,> 100 nM,,,,

# Now from value to binder:
EC50 [1],EC50 [2],EC50 [3],EC50 [4],binding result (bovine serum albumin),EC50 [5],EC50 [6],EC50 [7],EC50 [8],EC50 [9],EC50 [10],EC50 [11],EC50 [12],EC50 [13],EC50 [14],EC50 [15],Binder
2.2 nM,1 nM,,2.1 nM,no binding,> 100 nM,29.5 nM,2.7 nM,18.7 nM,> 100 nM,95.9 nM,> 100 nM,19.1 nM,96 nM,2 nM,19 nM,"NI-204.10A8 (antibody, human IgG1, V domains shown) VH: EVQLVESGAEVKEPGSSVRVSCKTSGGSFNRHVITWVRQAPGQGLEWMGEIIPFFGTPKYAPKFQGRVTIIADASTSTFFLDVKSLTSEDTALYFCWIVVVSVVQRREDFWGQGILVTVSS VL: EIVLTQSPSSLSASVGDTVTITCRSSQNISNYLSWFQHKPGKAPRILVYAASTLQTGVPSRFSGRGSGTIFTLSITSLQSEDYATYYCQQNDKIPRTFGQGTKVEIK"
0.36 nM,0.06 nM,,0.39 nM,no binding,0.6 nM,3.6 nM,0.4 nM,3.1 nM,0.07 nM,75.9 nM,> 40 nM,,,,,"NI-204.12G7 (antibody, human IgG1, V domains shown) VH: EVQLVESGAEVKKPGASVTLSCKASGYTFTAYYIHWVRQAREQGLEWMGVINPSTGTTFYAQNFPDRVSVTRDTSTSTVFMELHNLKSEDTAVYYCARAISEHGSGSYSPYYWGQGTLVTVSS VL: SYVLTQPPSVSVSLGQMAAITCSGEALPKKYGYWYQQKPGQVPVLLIYRDVERPSGVPDRFSGSSSGTMVTLTISGVQAEDEADYYCLSADSSGTWVFGGGTKLTVL"
,0.2 nM,,,,0.06 nM,,,,0.08 nM,,0.1 nM,,,,,"NI-204.67E12 (antibody, human IgG1, V domains shown) VH: EVQLLESGGGLIRPGGSLRLSCAASGFTFSNYAMGWVRQAPGKGLEWVSAISGNGGSTYYGGSVKGRFTISRDKSKNTLYLQMNNLRADDTAVYFCAKLEAVAPTLTLRYFKHWGKGTLVTVSS VL: DIQMTQSPSTLSASVGDRVTITCRASQSISRWLAWYQQRPGRAPDLLIYDASNLESGVPSRFSGSGSGTEFTLTISSLQPGDFATYYCQQYYSYVYTFGQGTKLEIK"
,0.5 nM,,,,0.4 nM,,,,0.3 nM,,50 nM,,,,,"NI-204.11F11 (antibody, human IgG1, V domains shown) VH: EVQLVESGGGLVKPGGSLRLSCAASGLPFSKAWMSWVRQAPGKGLEWVGRIKSQADGGAIDYATSVNGRFTITRDDSKNTLYLQMTSLKTEDTAVYYCTPGIILRFLEGTLRGMDVWGQGTTVTVSS VL: EIVLTQSPPTLSLSPGERATLSCRASQTVSKYLAWYQQKPGQAPRLLVYDTSNRAIGIPPRFSGSGSGTDFTLTISTLEPEDFALYYCQQRSNWPPTFGQGTRLEIK"
